Results on five sequences are retold here after the supplement of paper PMC5998384.

The test system of series [1] is HeLa Kyoto. Description: solubility in G1/S (NP-40 vs SDS abundance) (log2 ratio); higher = more soluble. To be noted: cell cycle stage: G1/S.
The test system of series [2] is HeLa Kyoto. The series can be described thus: melting temperature (median over replicates), in situ; higher = more thermally stable.
Series [3] has as its system HeLa Kyoto. The series can be described thus: solubility change mitosis vs G1/S (difference of NP-40 vs SDS log2 ratios) (log2 ratio difference); higher = more soluble in mitosis.
Series [4] deals with HeLa Kyoto. The series can be described thus: thermal stability score vs G1/S (z-score of summed log2 fold changes over temperatures); higher = more thermally stable than in G1/S.
[5] abbreviates: cell cycle stage: early G1 (4.5 h after nocodazole release).
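For melting temperature (median over replicates), in situ in this document: HeLa Kyoto cells synchronized by double thymidine or nocodazole block, proteins quantified by TMT10plex mass spectrometry, three independent biological replicates.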
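For solubility change mitosis vs G1/S (difference of NP-40 vs SDS log2 ratios) in this document: synchronized HeLa Kyoto cells (double thymidine block for G1/S, nocodazole release for mitosis), protein amounts in NP-40 versus SDS lysates quantified by mass spectrometry, three biological replicates.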
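For solubility in G1/S (NP-40 vs SDS abundance) in this document: HeLa Kyoto cells arrested at G1/S by double thymidine block, proteins quantified by TMT10plex mass spectrometry in mild NP-40 versus SDS extracts, three biological replicates.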
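For thermal stability score vs G1/S (z-score of summed log2 fold changes over temperatures) in this document: synchronized HeLa Kyoto cells, proteins quantified by TMT10plex mass spectrometry, three biological replicates, mitosis taken 0.5 h after nocodazole release, G1/S directly after double thymidine block.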

Consider “MSWLSSSQGVVLTAYHPSGKDQTVGNSHAKAGEEATSSRRYGQYTMNQESTTIKVMEKPPFDRSISQDSLDELSMEDYWIELENIKKSSENSQEDQEVVVVKEPDEGELEEEWLKEAGLSNLFGESAGDPQESIVFLSTLTRTQAAAVQKRVETVSQTLRKKNKQYQIPDVRDIFAQQRESKETAPGGTESQSLRTNENKYQGRDDEASNLVGEEKLIPPEETPAPETDINLEVSFAEQALNQKESSKEKIQKSKGDDATLPSFRLPKDKTGTTRIGDLAPQDMKKVCHLALIELTALYDVLGIELKQQKAVKIKTKDSGLFCVPLTALLEQDQRKVPGMRIPLIFQKLISRIEERGLETEGLLRIPGAAIRIKNLCQELEAKFYEGTFNWESVKQHDAASLLKLFIRELPQPLLSVEYLKAFQAVQNLPTKKQQLQALNLLVILLPDANRDTLKALLEFLQRVIDNKEKNKMTVMNVAMVMAPNLFMCHALGLKSSEQREFVMAAGTANTMHLLIKYQKLLWTIPKFIVNQVRKQNTENHKKDKRAMKKLLKKMAYDREKYEKQDKSTNDADVPQGVIRVQAPHLSKVSMAIQLTEELKASDVLARFLSQESGVAQTLKKGEVFLYEIGGNIGERCLDDDTYMKDLYQLNPNAEWVIKSKPL [ARHGAP18]”, for which, in the series with HeLa Kyoto [1], the “solubility in G1/S (log2)” value is 0.188. Further, the melting temperature in the series on HeLa Kyoto [2] (cell cycle stage: G1/S) and in the series with HeLa Kyoto [2] (cell cycle stage: mitosis) was 50 °C throughout. Also, the “solubility change mitosis (log2)” value in the series on HeLa Kyoto [3] was -0.128. Further, the results for the thermal stability score in the series with HeLa Kyoto [4] (setting [5]) and in the series on HeLa Kyoto [4] (cell cycle stage: mitosis) were 0.338 and 0.693, respectively.
On to “MSYDYHQNWGRDGGPRSSGGGYGGGPAGGHGGNRGSGGGGGGGGGGRGGRGRHPGHLKGREIGMWYAKKQGQKNKEAERQERAVVHMDERREEQIVQLLNSVQAKNDKESEAQISWFAPEDHGYGTEVSTKNTPCSENKLDIQEKKLINQEKKMFRIRNRSYIDRDSEYLLQENEPDGTLDQKLLEDLQKKKNDLRYIEMQHFREKLPSYGMQKELVNLIDNHQVTVISGETGCGKTTQVTQFILDNYIERGKGSACRIVCTQPRRISAISVAERVAAERAESCGSGNSTGYQIRLQSRLPRKQGSILYCTTGIILQWLQSDPYLSSVSHIVLDEIHERNLQSDVLMTVVKDLLNFRSDLKVILMSATLNAEKFSEYFGNCPMIHIPGFTFPVVEYLLEDVIEKIRYVPEQKEHRSQFKRGFMQGHVNRQEKEEKEAIYKERWPDYVRELRRRYSASTVDVIEMMEDDKVDLNLIVALIRYIVLEEEDGAILVFLPGWDNISTLHDLLMSQVMFKSDKFLIIPLHSLMPTVNQTQVFKRTPPGVRKIVIATNIAETSITIDDVVYVIDGGKIKETHFDTQNNISTMSAEWVSKANAKQRKGRAGRVQPGHCYHLYNGLRASLLDDYQLPEILRTPLEELCLQIKILRLGGIAYFLSRLMDPPSNEAVLLSIRHLMELNALDKQEELTPLGVHLARLPVEPHIGKMILFGALFCCLDPVLTIAASLSFKDPFVIPLGKEKIADARRKELAKDTRSDHLTVVNAFEGWEEARRRGFRYEKDYCWEYFLSSNTLQMLHNMKGQFAEHLLGAGFVSSRNPKDPESNINSDNEKIIKAVICAGLYPKVAKIRLNLGKKRKMVKVYTKTDGLVAVHPKSVNVEQTDFHYNWLIYHLKMRTSSIYLYDCTEVSPYCLLFFGGDISIQKDNDQETIAVDEWIVFQSPARIAHLVKELRKELDILLQEKIESPHPVDWNDTKSRDCAVLSAIIDLIKTQEKATPRNFPPRFQDGYYS [DHX36]”, for which the “solubility in G1/S (log2)” value with HeLa Kyoto [1] is -0.25. For the same sequence, the melting temperature in the series with HeLa Kyoto [2] (cell cycle stage: G1/S) was determined as 50.8 °C; in the series with HeLa Kyoto [2] (cell cycle stage: mitosis) it was 51.5 °C. Besides, in the series on HeLa Kyoto [3], the “solubility change mitosis (log2)” value is -0.0322. Also, the results for the thermal stability score in the series with HeLa Kyoto [4] (setting [5]) and in the series on HeLa Kyoto [4] (cell cycle stage: mitosis) were 0.36 and 0.349, respectively.
For the sequence “MSYGPLDMYRNPGPSGPQLRDFSSIIQTCSGNIQRISQATAQIKNLMSQLGTKQDSSKLQENLQQLQHSTNQLAKETNELLKELGSLPLPLSTSEQRQQRLQKERLMNDFSAALNNFQAVQRRVSEKEKESIARARAGSRLSAEERQREEQLVSFDSHEEWNQMQSQEDEVAITEQDLELIKERETAIRQLEADILDVNQIFKDLAMMIHDQGDLIDSIEANVESSEVHVERATEQLQRAAYYQKKSRKKMCILVLVLSVIILILGLIIWLVYKTK [STX12]”, the “solubility in G1/S (log2)” value in the series on HeLa Kyoto [1] is -0.121. Further, the results for the melting temperature in the series on HeLa Kyoto [2] (cell cycle stage: G1/S) and in the series with HeLa Kyoto [2] (cell cycle stage: mitosis) were 53.9 °C and 54.3 °C, respectively. Further, the “solubility change mitosis (log2)” value in the series on HeLa Kyoto [3] was found to be 0.0226. Moreover, the results for the thermal stability score in the series with HeLa Kyoto [4] (setting [5]) and in the series with HeLa Kyoto [4] (cell cycle stage: mitosis) were -1.25 and -1.93, respectively.
For the sequence “MSYIPGQPVTAVVQRVEIHKLRQGENLILGFSIGGGIDQDPSQNPFSEDKTDKGIYVTRVSEGGPAEIAGLQIGDKIMQVNGWDMTMVTHDQARKRLTKRSEEVVRLLVTRQSLQKAVQQSMLS [TAX1BP3]”, the “solubility in G1/S (log2)” value in the series on HeLa Kyoto [1] came out at 0.277. Further, the melting temperature in the series with HeLa Kyoto [2] (cell cycle stage: G1/S) came out at 49.1 °C; with HeLa Kyoto [2] (cell cycle stage: mitosis), 49.2 °C. Further, in the series with HeLa Kyoto [3], the “solubility change mitosis (log2)” value was found to be 0.0294. The thermal stability score in the series with HeLa Kyoto [4] (setting [5]) came out at 1.74; in the series on HeLa Kyoto [4] (cell cycle stage: mitosis), 1.25.
Take “MSYPGYPPTGYPPFPGYPPAGQESSFPPSGQYPYPSGFPPMGGGAYPQVPSSGYPGAGGYPAPGGYPAPGGYPGAPQPGGAPSYPGVPPGQGFGVPPGGAGFSGYPQPPSQSYGGGPAQVPLPGGFPGGQMPSQYPGGQPTYPSQINTDSFSSYPVFSPVSLDYSSEPATVTQVTQGTIRPAANFDAIRDAEILRKAMKGFGTDEQAIVDVVANRSNDQRQKIKAAFKTSYGKDLIKDLKSELSGNMEELILALFMPPTYYDAWSLRKAMQGAGTQERVLIEILCTRTNQEIREIVRCYQSEFGRDLEKDIRSDTSGHFERLLVSMCQGNRDENQSINHQMAQEDAQRLYQAGEGRLGTDESCFNMILATRSFPQLRATMEAYSRMANRDLLSSVSREFSGYVESGLKTILQCALNRPAFFAERLYYAMKGAGTDDSTLVRIVVTRSEIDLVQIKQMFAQMYQKTLGTMIAGDTSGDYRRLLLAIVGQ [ANXA7]”: the “solubility in G1/S (log2)” value in the series on HeLa Kyoto [1] stood at 0.437. Further, the melting temperature in the series on HeLa Kyoto [2] (cell cycle stage: G1/S) amounted to 50.7 °C; in the series on HeLa Kyoto [2] (cell cycle stage: mitosis) it was 51.3 °C. In addition, the “solubility change mitosis (log2)” value in the series on HeLa Kyoto [3] came out at 0.0486. Further, the thermal stability score was determined as 2.36 with HeLa Kyoto [4] (setting [5]) and 2 with HeLa Kyoto [4] (cell cycle stage: mitosis).
